Laboratory results from paper PMC9609871, “Binding and Kinetic Analysis of Human Protein Phosphatase PP2A Interactions with Caspase 9 Protein and the Interfering Peptide C9h” (Pharmaceutics, 2022).
Read-outs that look alike come from different tables or passages of the source.

Molecular target: T1, PP2A (Homo sapiens, UniProt P67775)
T1 construct: purchased LSBio
Experiment: BLI: PP2A analyte binding to immobilized Caspase 9 (Protein A biosensor, anti-Caspase 9)
Experimental: Kinetic analysis was performed based on biolayer interferometry (BLI) by using a BLItz instrument (ForteBio, Bayonne, France) at room temperature. Prior to use, each biosensor was hydrated in sample diluent (SD: PBS1X, pH 7.0, 0.02% Tween 20, 0.1% BSA) for at least 10 min. Kinetic measurements of PP2A/Caspase 9 interactions were run with Protein A biosensors (Fortebio) and consisted of seven steps, all performed in reaction buffer, as follows: (i) initial baseline in 300 µL SD for 30 s was measured; (ii) 4 µL of mouse anti-Caspase 9 or rabbit anti-PP2A were immobilized on the sensor for 150 s at 133 nM; (iii) the immunosensor was washed with 300 µL SD for 120 s; (iv) 4 µL of purified ligand Caspase 9 at 566 nM (Origen) or PP2A at 694 nM (LSBio) were loaded on the immunosensor for 150 s; (v) the ligand-coated immunosensor was washed with 300 µL SD for 120 s; (vi) association of purified analytes diluted in SD at the mentioned concentrations was studied for 150 s in 4 µL; and (vii) dissociation step was then monitored in 300 µL SD for 120 s.
Experiments using empty immunosensors (no ligand loaded) were run as control. Sensorgrams were fit globally to a 1:1 binding model by BLItz Pro software, from which the association (kon) and dissociation (koff) rate constants and apparent affinities (KD) were calculated. […]

T1 sequence (P67775 whole entry): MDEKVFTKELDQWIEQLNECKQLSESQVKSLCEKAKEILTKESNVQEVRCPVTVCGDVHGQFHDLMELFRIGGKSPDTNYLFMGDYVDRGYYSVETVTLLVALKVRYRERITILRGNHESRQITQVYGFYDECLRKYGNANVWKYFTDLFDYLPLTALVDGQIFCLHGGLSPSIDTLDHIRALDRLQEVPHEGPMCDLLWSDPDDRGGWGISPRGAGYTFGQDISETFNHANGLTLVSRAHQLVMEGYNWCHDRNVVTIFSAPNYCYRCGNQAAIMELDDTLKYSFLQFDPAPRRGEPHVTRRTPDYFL

Kd (discussion summary of PP2A/Caspase 9 BLI studies, in the range of, read-out: binding affinity of PP2A to Caspase 9): ~150 nM
Kd (summary: close to, PP2A analyte on immobilized Caspase 9, read-out: affinity, both models): ~100 nM
B1: Caspase 9: purified Caspase 9 protein (Origen), cysteine protease, initiator of intrinsic apoptosis (protein)
chain: MDEADRRLLRRCRLRLVEELQVDQLWDALLSRELFRPHMIEDIQRAGSGSRRDQARQLIIDLETRGSQALPLFISCLEDTGQDMLASFLRTNRQAAKLSKPTLENLTPVVLRPEIRKPEVLRPETPRPVDIGSGGFGDVGALESLRGNADLAYILSMEPCGHCLIINNVNFCRESGLRTRTGSNIDCEKLRRRFSSLHFMVEVKGDLTAKKMVLALLELAQQDHGALDCCVVVILSHGCQASHLQFPGAVYGTDGCPVSVEKIVNIFNGTSCPSLGGKPKLFFIQACGGEQKDHGFEVASTSPEDESPGSNPEPDATPFQEGLRTFDQLDAISSLPTPSDIFVSYSTFPGFVSWRDPKSGSWYVETLDDIFEQWAHSEDLQSLLLRVANAVSVKGIYKQMPGCFNFLRKKLFFKTS
modifications: Commercial purified Caspase 9 (Origen)
